The values below come from publication PMC9105384, “Ethyl Gallate Dual-Targeting PTPN6 and PPARγ Shows Anti-Diabetic and Anti-Obese Effects” (International Journal of Molecular Sciences, 2022).

The data set concerns T1, Cc1cc(=O)oc2c(F)c(OP(=O)(O)O)c(F)cc12.
T1 construct: Full-length human PTPN6 with an N-terminal hexahistidine (His6) tag
Description: Michaelis-Menten kinetics, fluorescence (Km). Type of data set: biochemical, Homo sapiens.

As to PTPN6 (Homo sapiens), the Michaelis-Menten constant (Km) stood at 86.26 µM.
